Drawing on paper doi:10.1101/637298, this text covers binding result and binding signal for two molecules.

The target in data set [1] is T1, hZFY full-length (13-finger construct) (human, UniProt P08048 408-768).
T1 sequence: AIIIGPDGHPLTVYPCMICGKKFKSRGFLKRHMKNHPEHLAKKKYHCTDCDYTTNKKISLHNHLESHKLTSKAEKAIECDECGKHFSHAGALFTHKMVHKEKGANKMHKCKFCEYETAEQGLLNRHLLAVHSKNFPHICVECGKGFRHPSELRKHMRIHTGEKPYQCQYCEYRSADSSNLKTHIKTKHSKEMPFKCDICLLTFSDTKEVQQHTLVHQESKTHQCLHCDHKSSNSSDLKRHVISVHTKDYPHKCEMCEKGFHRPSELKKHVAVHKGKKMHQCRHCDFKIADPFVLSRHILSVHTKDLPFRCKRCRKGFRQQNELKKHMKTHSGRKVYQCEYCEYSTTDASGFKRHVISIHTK
Put plainly: fluorescence anisotropy dissociation. In general terms: Fluorescence polarisation rises when a labelled molecule tumbles more slowly, as on binding a larger partner.

The target in data set [2] is T1, hZFY full-length (13-finger construct). The experiment in a line: fluorescence anisotropy dissociation. The source holds these as a separate data set.

B1: S.S.S. (long) FAM probe (dsDNA)
DNA 1: ACCTGGCCTAGTCGTTTTTGAGATCTTCATCAATTGCCGCATC
DNA 2: GATGCGGCAATTGATGAAGATCTCAAAAACGACTAGGCCAGGT
Take B1: the binding result in data set [1] is “binds”.

B2: S.S.N. FAM probe (dsDNA)
DNA 1: ACCTGGCCTAGTCGTTGCCCAGAT
DNA 2: ATCTGGGCAACGACTAGGCCAGGT
B2: the binding signal in data set [2] was ~2 fold shorter lifetime than SSS.
